In PMC8878492:
Where “and” joins values, the source holds several entries; their conditions need not be identical. Equal entries are not always repeated.

What was measured:
[1] = molecular target: HAdV-D26 penton base (human adenovirus D26 (HAdV-D26)); assay: cryo-EM structure
[2] = molecular target: HAdV-D26 hexon (human adenovirus D26 (HAdV-D26)); assay: cryo-EM structure

HAdV-D26 penton base (natural protein) was tested, and the stoichiometry N [1] was 5 subunits.

For “cleaved N-terminal fragment of HAdV-D26 pre-protein VI (pVIn) (peptide)”, the stoichiometry N (copies of pVIn in a hexon) [2] was 2 and 3.
